Assay results from the supplement of paper PMC9170038.

Test system: MS2 coat protein
Assay: apparent KD of MS2 coat protein; designed switch direction (-1 OFF switch, 1 ON switch): -1; higher = weaker reporter binding
Settings: Eterna round: R98
Procedure: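 RNA-MaP: designed FMN/MS2 RNA switches (84 nt design region) are transcribed on-chip within common flanks and titrated with SNAP-549-labelled MS2 coat protein (about 1-3000 nM) in 100 mM Tris pH 7.5, 80 mM KCl, 4 mM MgCl2, without or with 200 uM FMN. Median apparent KD per design; activation ratio = KD,OFF / KD,ON.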

Row | Sequence | apparent KD of MS2 coat protein (input ligand: FMN 200 uM) [nM] | apparent KD of MS2 coat protein (input ligand: none) [nM]
1 | GUCAGGAAUGUAGGAUAUCGUCAGGAAUACUGGCGAGAAGGACAUGAGGAUCACCCAUGUAAAAUGAAAGAUAAUAAACCUGGC [Exclsuion NG 1/2-C1] | 31.9 | 18.7
2 | CACCGUUACAGAGGAUAUGACACAUGAGGAUCACCCAUGUAAUAAAUGAGAAUUUCGAAUGUAACUCAGAAGGCUGGAAUCGGC [JieuxMod 1 - Jieux - Exclusion NG 2] | 61.6 | 25.9
3 | AGACUCAGAUGGUGCCAGCUUGCACAUGAGGAUCACCCAUGUCAGGAUAUCUUCGCUCCGGGAGAAGAGAAGGGACAAGAAAUU [Anenan] | 165 | 104
